{"source": "the supplement of paper PMC10126150", "note": "± gives the standard deviation of the averaged measurements.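 Further: ATP exposure 15 min at 22 °C before imaging.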", "data": [{"test_system": "ATP", "test": "switch fluorescence ratio, 500 uM ATP over buffer (Cy3 cluster intensity, sum of 5 cycles each) (fold (ratio)); higher = stronger signal-on switching upon ATP binding; sequences stand for … in TCGTCGGCAGCGTCAGATGTGTATAAGAGACAGTTTTTTTTTTTTTTTTTTTTTTTTT…TC", "conditions": "aptamer strand: ATP DNA aptamer (quencher-CACCTGGGGGAGTATTGCGGAGGAAGG + anchor), 100 nM annealed; ATP concentration: 500 uM", "outline": "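Imaging in selection buffer was followed by imaging after 15 min with 500 uM ATP at 22 °C, for Cy3-labelled switching-strand clusters annealed to 100 nM quencher-labelled ATP aptamer on a modified Illumina MiSeq flow-cell. Five of these buffer/ATP cycles ran, separated by NaOH stripping and re-annealing. The fluorescence ratio per cluster is summed target-cycle over summed buffer-cycle Cy3 intensity, averaged per switch-domain sequence; clusters outside 100-1000 RFU were removed.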", "values": [{"sequence": "TTGTGGGGAG", "switch fluorescence ratio": "0.97 ± 0.024"}, {"sequence": "TTGTGGGGTT", "switch fluorescence ratio": "0.984 ± 0.048"}, {"sequence": "TTGTGGGTAG", "switch fluorescence ratio": "1.02 ± 0.043"}, {"sequence": "TTGTGGTGAG", "switch fluorescence ratio": "0.987 ± 0.016"}, {"sequence": "TTGTGTGTAG", "switch fluorescence ratio": "1.04 ± 0.033"}, {"sequence": "TTGTGTGTTA", "switch fluorescence ratio": "0.9687 ± 0.0052"}, {"sequence": "TTGTGTTGGT", "switch fluorescence ratio": "0.999 ± 0.041"}, {"sequence": "TTGTGTTTAC", "switch fluorescence ratio": "1.07 ± 0.11"}, {"sequence": "TTGTTAATGA", "switch fluorescence ratio": "0.979 ± 0.046"}, {"sequence": "TTGTTAATTG", "switch fluorescence ratio": "1.01 ± 0.041"}, {"sequence": "TTGTTACTCG", "switch fluorescence ratio": "0.976 ± 0.048"}, {"sequence": "TTGTTAGGGT", "switch fluorescence ratio": "0.958 ± 0.011"}, {"sequence": "TTGTTAGGTT", "switch fluorescence ratio": "1.06 ± 0.13"}, {"sequence": "TTGTTCCGAT", "switch fluorescence ratio": "1.02 ± 0.032"}, {"sequence": "TTGTTCGCTT", "switch fluorescence ratio": "1.03 ± 0.025"}, {"sequence": "TTGTTCTAAC", "switch fluorescence ratio": "1.0276 ± 0.00054"}, {"sequence": "TTGTTCTGGG", "switch fluorescence ratio": "0.972 ± 0.022"}, {"sequence": "TTGTTGA", "switch fluorescence ratio": "0.984 ± 0.042"}, {"sequence": "TTGTTGCAGC", "switch fluorescence ratio": "1.02 ± 0.035"}, {"sequence": "TTGTTGCCGT", "switch fluorescence ratio": "0.984 ± 0.065"}, {"sequence": "TTGTTGCGTT", "switch fluorescence ratio": "0.986 ± 0.025"}, {"sequence": "TTGTTGGAAT", "switch fluorescence ratio": "1 ± 0.019"}, {"sequence": "TTGTTGGAGG", "switch fluorescence ratio": "0.982 ± 0.025"}, {"sequence": "TTGTTGGAGT", "switch fluorescence ratio": "0.985 ± 0.018"}, {"sequence": "TTGTTGGGAT", "switch fluorescence ratio": "0.996 ± 0.028"}, {"sequence": "TTGTTGGGG", "switch fluorescence ratio": "0.994 ± 0.03"}, {"sequence": "TTGTTGGGGA", "switch fluorescence ratio": "1 ± 0.019"}, {"sequence": "TTGTTGGTCT", "switch fluorescence ratio": "1.009 ± 0.0075"}, {"sequence": "TTGTTGGTTG", "switch fluorescence ratio": "0.975 ± 0.034"}, {"sequence": "TTGTTGTCTT", "switch fluorescence ratio": "1.02 ± 0.043"}, {"sequence": "TTGTTGTGGG", "switch fluorescence ratio": "0.986 ± 0.024"}, {"sequence": "TTGTTGTTTG", "switch fluorescence ratio": "1.03 ± 0.025"}, {"sequence": "TTGTTTAAGT", "switch fluorescence ratio": "1.001 ± 0.0081"}, {"sequence": "TTGTTTAATA", "switch fluorescence ratio": "1.02 ± 0.019"}, {"sequence": "TTGTTTAATC", "switch fluorescence ratio": "1.036 ± 0.0097"}, {"sequence": "TTGTTTAGCC", "switch fluorescence ratio": "0.989 ± 0.032"}, {"sequence": "TTGTTTATGG", "switch fluorescence ratio": "0.983 ± 0.015"}, {"sequence": "TTGTTTCAGG", "switch fluorescence ratio": "1.01 ± 0.018"}, {"sequence": "TTGTTTCTTT", "switch fluorescence ratio": "1 ± 0.017"}, {"sequence": "TTGTTTGAAA", "switch fluorescence ratio": "1 ± 0.064"}, {"sequence": "TTGTTTGCCT", "switch fluorescence ratio": "1.04 ± 0.037"}, {"sequence": "TTGTTTGGTT", "switch fluorescence ratio": "0.983 ± 0.034"}, {"sequence": "TTGTTTTATT", "switch fluorescence ratio": "0.981 ± 0.038"}, {"sequence": "TTGTTTTCCT", "switch fluorescence ratio": "1.02 ± 0.011"}, {"sequence": "TTGTTTTCTT", "switch fluorescence ratio": "1 ± 0.045"}, {"sequence": "TTGTTTTGTG", "switch fluorescence ratio": "0.978 ± 0.013"}, {"sequence": "TTGTTTTTAG", "switch fluorescence ratio": "0.988 ± 0.04"}, {"sequence": "TTGTTTTTCC", "switch fluorescence ratio": "1.03 ± 0.057"}, {"sequence": "TTTAAAAA", "switch fluorescence ratio": "1.02 ± 0.044"}, {"sequence": "TTTAAAAAGG", "switch fluorescence ratio": "0.982 ± 0.029"}, {"sequence": "TTTAAAAGGG", "switch fluorescence ratio": "1 ± 0.027"}, {"sequence": "TTTAAAATAG", "switch fluorescence ratio": "1.01 ± 0.019"}, {"sequence": "TTTAAACTT", "switch fluorescence ratio": "1.63 ± 1.1"}, {"sequence": "TTTAAACTTT", "switch fluorescence ratio": "1.013 ± 0.0075"}, {"sequence": "TTTAAAGGTT", "switch fluorescence ratio": "1.02 ± 0.054"}, {"sequence": "TTTAAATTAG", "switch fluorescence ratio": "0.969 ± 0.046"}, {"sequence": "TTTAAATTTT", "switch fluorescence ratio": "1 ± 0.03"}, {"sequence": "TTTAACGCCA", "switch fluorescence ratio": "1.082 ± 0.0028"}, {"sequence": "TTTAACGGGG", "switch fluorescence ratio": "0.987 ± 0.034"}, {"sequence": "TTTAACGTAC", "switch fluorescence ratio": "1.83 ± 0.15"}, {"sequence": "TTTAACGTCG", "switch fluorescence ratio": "1.035 ± 0.005"}, {"sequence": "TTTAAGAAGG", "switch fluorescence ratio": "1 ± 0.015"}, {"sequence": "TTTAAGAATC", "switch fluorescence ratio": "0.994 ± 0.03"}, {"sequence": "TTTAAGAGAT", "switch fluorescence ratio": "0.998 ± 0.028"}, {"sequence": "TTTAAGATAT", "switch fluorescence ratio": "1.09 ± 0.074"}, {"sequence": "TTTAAGCGCC", "switch fluorescence ratio": "0.966 ± 0.0085"}, {"sequence": "TTTAAGGATT", "switch fluorescence ratio": "1.21 ± 0.33"}, {"sequence": "TTTAAGGTTG", "switch fluorescence ratio": "0.986 ± 0.023"}, {"sequence": "TTTAAGTAGG", "switch fluorescence ratio": "1.02 ± 0.048"}, {"sequence": "TTTAAGTATT", "switch fluorescence ratio": "0.999 ± 0.02"}, {"sequence": "TTTAAGTCGA", "switch fluorescence ratio": "1.02 ± 0.04"}, {"sequence": "TTTAAGTGAG", "switch fluorescence ratio": "0.981 ± 0.021"}, {"sequence": "TTTAATAGTG", "switch fluorescence ratio": "0.971 ± 0.014"}, {"sequence": "TTTAATATGA", "switch fluorescence ratio": "0.997 ± 0.035"}, {"sequence": "TTTAATCAGG", "switch fluorescence ratio": "1.04 ± 0.025"}, {"sequence": "TTTAATTCT", "switch fluorescence ratio": "0.989 ± 0.022"}, {"sequence": "TTTAATTGTA", "switch fluorescence ratio": "1.01 ± 0.044"}, {"sequence": "TTTAATTTT", "switch fluorescence ratio": "1.04 ± 0.078"}, {"sequence": "TTTAATTTTG", "switch fluorescence ratio": "1 ± 0.036"}, {"sequence": "TTTACACGAT", "switch fluorescence ratio": "1.01 ± 0.019"}, {"sequence": "TTTACAGAGT", "switch fluorescence ratio": "1.06 ± 0.12"}, {"sequence": "TTTACAGCTT", "switch fluorescence ratio": "0.987 ± 0.027"}, {"sequence": "TTTACAGGAT", "switch fluorescence ratio": "0.993 ± 0.024"}, {"sequence": "TTTACCAGGG", "switch fluorescence ratio": "1.13 ± 0.085"}, {"sequence": "TTTACCATAG", "switch fluorescence ratio": "1.06 ± 0.019"}, {"sequence": "TTTACCCAGT", "switch fluorescence ratio": "1.04 ± 0.066"}, {"sequence": "TTTACCCATC", "switch fluorescence ratio": "1.04 ± 0.033"}, {"sequence": "TTTACCGGTA", "switch fluorescence ratio": "1.01 ± 0.023"}, {"sequence": "TTTACCGTCT", "switch fluorescence ratio": "1.04 ± 0.018"}, {"sequence": "TTTACCTATA", "switch fluorescence ratio": "1.02 ± 0.013"}, {"sequence": "TTTACGAAGT", "switch fluorescence ratio": "0.966 ± 0.013"}, {"sequence": "TTTACGCGTC", "switch fluorescence ratio": "1.16 ± 0.27"}, {"sequence": "TTTACGGAGC", "switch fluorescence ratio": "1.37 ± 0.075"}, {"sequence": "TTTACGGCGG", "switch fluorescence ratio": "0.987 ± 0.021"}, {"sequence": "TTTACGGCGT", "switch fluorescence ratio": "0.994 ± 0.017"}, {"sequence": "TTTACGGCTT", "switch fluorescence ratio": "1.05 ± 0.078"}, {"sequence": "TTTACGGGGG", "switch fluorescence ratio": "1 ± 0.043"}, {"sequence": "TTTACGTGCA", "switch fluorescence ratio": "1.04 ± 0.073"}, {"sequence": "TTTACTATTT", "switch fluorescence ratio": "0.988 ± 0.035"}, {"sequence": "TTTACTGCTT", "switch fluorescence ratio": "0.981 ± 0.044"}]}]}
